Results published in US8209131.

Each substance was assayed against IL-4 receptor alpha (IL-4Ra) (UniProt P24394) (assay: cell-based or functional assay).
Chain of IL-4 receptor alpha (IL-4Ra) (P24394 26-825 limits assumed): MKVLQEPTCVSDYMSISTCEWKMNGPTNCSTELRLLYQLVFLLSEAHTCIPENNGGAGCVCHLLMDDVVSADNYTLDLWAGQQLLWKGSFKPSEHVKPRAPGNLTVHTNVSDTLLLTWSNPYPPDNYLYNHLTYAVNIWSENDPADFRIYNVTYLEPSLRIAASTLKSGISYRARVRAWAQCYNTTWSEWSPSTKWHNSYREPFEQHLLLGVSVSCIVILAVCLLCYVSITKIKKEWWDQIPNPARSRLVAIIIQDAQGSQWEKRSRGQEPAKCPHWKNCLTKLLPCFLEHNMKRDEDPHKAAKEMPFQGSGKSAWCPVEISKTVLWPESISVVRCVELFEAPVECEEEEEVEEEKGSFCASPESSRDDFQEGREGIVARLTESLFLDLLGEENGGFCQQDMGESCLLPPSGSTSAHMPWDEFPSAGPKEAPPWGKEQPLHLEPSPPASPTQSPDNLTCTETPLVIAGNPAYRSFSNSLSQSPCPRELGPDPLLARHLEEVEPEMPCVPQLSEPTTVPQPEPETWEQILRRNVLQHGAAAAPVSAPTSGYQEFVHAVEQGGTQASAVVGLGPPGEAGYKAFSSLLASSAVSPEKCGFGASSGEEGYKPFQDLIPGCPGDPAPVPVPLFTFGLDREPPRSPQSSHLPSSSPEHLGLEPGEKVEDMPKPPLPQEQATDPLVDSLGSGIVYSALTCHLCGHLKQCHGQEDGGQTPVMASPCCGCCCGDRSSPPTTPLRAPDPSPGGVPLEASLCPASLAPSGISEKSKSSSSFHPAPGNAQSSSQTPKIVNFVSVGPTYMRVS
For “IL-4 mutant K12A (from UniProt P05112 25-153) (ligand)”, the Conc needed for 50% growth (TF1.8 Bioassay), average was 0.6 ng/mL. Work on “IL-4 mutant R81A (from UniProt P05112 25-153) (ligand)” yielded a Conc needed for 50% growth (TF1.8 Bioassay), average of 4.85 ng/mL. Substance “IL-4 mutant R53A (from UniProt P05112 25-153) (ligand)” has a Conc needed for 50% growth (TF1.8 Bioassay), average of 9.39 ng/mL. With “IL-4 double mutant K77A/R53A (from UniProt P05112 25-153) (ligand)” the Conc needed for 50% growth (TF1.8 Bioassay), average was 11.3 ng/mL. In the case of “IL-4 double mutant K77A/R81A (from UniProt P05112 25-153) (ligand)”, the Conc needed for 50% growth (TF1.8 Bioassay), average is reported as 1.65 ng/mL. “IL-4 double mutant K77A/K84A (from UniProt P05112 25-153) (ligand)” showed a Conc needed for 50% growth (TF1.8 Bioassay), average of 1.69 ng/mL. In the case of “IL-4 mutant K77A (from UniProt P05112 25-153) (ligand)”, the Conc needed for 50% growth (TF1.8 Bioassay), average is reported as 1.55 ng/mL. In the case of “IL-4 mutant K84A (from UniProt P05112 25-153) (ligand)”, the Conc needed for 50% growth (TF1.8 Bioassay), average is reported as 2.95 ng/mL. Work on “IL-4 mutant R88V (from UniProt P05112 25-153) (ligand)” yielded a Conc needed for 50% growth (TF1.8 Bioassay), average of 415 ng/mL. In the case of “IL-4 mutant R75A (from UniProt P05112 25-153) (ligand)”, the Conc needed for 50% growth (TF1.8 Bioassay), average is reported as 0.63 ng/mL. In the case of “IL-4 mutant K42A (from UniProt P05112 25-153) (ligand)”, the Conc needed for 50% growth (TF1.8 Bioassay), average is reported as 0.67 ng/mL. “IL-4 mutant R85A (from UniProt P05112 25-153) (ligand)” gave a Conc needed for 50% growth (TF1.8 Bioassay), average of 0.71 ng/mL. For “IL-4 mutant E9A (from UniProt P05112 25-153) (ligand)”, the Conc needed for 50% growth (TF1.8 Bioassay), average was 76.1 ng/mL. “IL-4 mutant K21A (from UniProt P05112 25-153) (ligand)” was tested, and the Conc needed for 50% growth (TF1.8 Bioassay), average was 1.36 ng/mL.
